From IntAct's records for PubMed 18826409 come the findings set out here.

The labels stand for the following.
B1: Regulator of sigma D (Escherichia coli (strain K12)), P0AFX4 (parent)
chain: MLNQLDNLTERVRGSNKLVDRWLHVRKHLLVAYYNLVGIKPGKESYMRLNEKALDDFCQSLVDYLSAGHFSIYERILHKLEGNGQLARAAKIWPQLEANTQQIMDYYDSSLETAIDHDNYLEFQQVLSDIGEALEARFVLEDKLILLVLDAARVKHPA

Variants of B1 are the subject of the first assay. The note with it: with rpod_ecoli rpoD.
Consider Y34F, for which the “effect of a mutation on the interaction” value is reported as “decreasing interaction strength”.
As to G14E, the “effect of a mutation on the interaction” value was “increasing interaction strength”.
Still for that read-out and setting: the result for G14E;Y34F reads “increasing interaction strength”.

In the next assay the parent is B1. To be noted: with rpod_ecoli rpoD. This is another data set of the same source.
On to Y34F, for which the “effect of a mutation on the interaction” value is reported as “increasing interaction strength”.
As to D142N, the “effect of a mutation on the interaction” value is given as “disrupting interaction strength”.
